Source: article PMC8452523

Tests used:
[1] = molecular target: trimeric Spike, full P.1 variant (SARS-CoV-2) (UniProt P0DTC2); experiment: Luminex bead-based binding assay
[2] = molecular target: trimeric Spike K417N/E484K/N501Y (SARS-CoV-2) (UniProt P0DTC2); experiment: Luminex bead-based binding assay

Substance: REGN10933 (antibody)
- fold reduced binding affinity [1]: 195 fold
- fold reduced binding affinity [2]: 60 fold
